± gives the uncertainty stated by the source.
Assay: amyloid nucleation score (Sup35N fusion, yeast selection) (log enrichment); library NNK3; higher = more nucleation; inactive = no reads after selection
Outline: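 For the nucleation score, DiMSum gave the log enrichment of output over input reads, centred on the mode score of non-aggregating sequences. Psi-negative yeast expressing Sup35N fused to peptides of 20 random codons were induced with 100 μM copper sulfate for 24 hours and grown 7 days at 30°C on medium lacking adenine and uracil. Input and output plasmid inserts were Illumina-sequenced, and sequences with under 100 input reads were excluded.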

**Q.** Which amyloid nucleation score does the source give for VRIMCMSWIVVWHYMC here?
**A.** inactive

**Q.** For VRLRDLN, which amyloid nucleation score is on record?
**A.** inactive

**Q.** With VRLRVEYAKSEWKMIFGEFY as the substance, how does the amyloid nucleation score read?
**A.** inactive

**Q.** Which amyloid nucleation score does the source give for VRLSRAVILLAVIHLRWGLT here?
**A.** inactive

**Q.** Which amyloid nucleation score does the source give for VRLYADNNLSAITKLLCPKN here?
**A.** inactive

**Q.** For VRMFRDLLYPAEYLS, which amyloid nucleation score is on record?
**A.** inactive

**Q.** With VRNEYACNCTYMRIARLDE as the substance, how does the amyloid nucleation score read?
**A.** 0.319 ± 0.29

**Q.** With VRNLVHHPYAFL as the substance, how does the amyloid nucleation score read?
**A.** inactive

**Q.** With VRNRWA as the substance, how does the amyloid nucleation score read?
**A.** inactive

**Q.** Which amyloid nucleation score does the source give for VRRVQSLRPPAHVSLAPYRA here?
**A.** inactive

**Q.** Which amyloid nucleation score does the source give for VRSTFNCITLRTLAIRSFYH here?
**A.** inactive

**Q.** With VRTVFCNIFFEFRGGSRNWA as the substance, how does the amyloid nucleation score read?
**A.** 1.79 ± 0.11

**Q.** With VRVILNAGLKNGRKVLNLGR as the substance, how does the amyloid nucleation score read?
**A.** inactive

**Q.** For VRVLDWNLMHFFFSYKRFLQ, which amyloid nucleation score is on record?
**A.** -0.094 ± 0.25

**Q.** For VRVLMSL, which amyloid nucleation score is on record?
**A.** -0.087 ± 0.45

**Q.** With VRWWWLNF as the substance, how does the amyloid nucleation score read?
**A.** inactive

**Q.** For VRYFSKSGGRNPNVGRVVPV, which amyloid nucleation score is on record?
**A.** inactive

**Q.** Which amyloid nucleation score does the source give for VRYSPDRKFGETCIKQAVMT here?
**A.** inactive

**Q.** Which amyloid nucleation score does the source give for VSAAYLRTVRQ here?
**A.** inactive

**Q.** Which amyloid nucleation score does the source give for VSEFFFP here?
**A.** inactive

**Q.** Which amyloid nucleation score does the source give for VSEMCIMSCTHIVGDCSWIR here?
**A.** inactive

**Q.** Which amyloid nucleation score does the source give for VSFEYTGEYLCSNVRATDLL here?
**A.** 0.366 ± 0.69

**Q.** Which amyloid nucleation score does the source give for VSGQKVSCMDE here?
**A.** inactive

**Q.** Which amyloid nucleation score does the source give for VSIKSRLRCLSVVQDNSRCV here?
**A.** inactive

**Q.** Which amyloid nucleation score does the source give for VSLGVNRGG here?
**A.** inactive

**Q.** For VSLVWDMHWHSYRVSSELCR, which amyloid nucleation score is on record?
**A.** inactive

**Q.** With VSNHSIDIGRLRLGFTC as the substance, how does the amyloid nucleation score read?
**A.** inactive

**Q.** For VSNLLIKVTRHASYDQSS, which amyloid nucleation score is on record?
**A.** inactive

**Q.** Which amyloid nucleation score does the source give for VSRPS here?
**A.** inactive

**Q.** Which amyloid nucleation score does the source give for VSRVTRLNKFISVVHDSCEV here?
**A.** inactive

**Q.** Which amyloid nucleation score does the source give for VSSRECMLRPLPDTKTRLAA here?
**A.** inactive

**Q.** For VSSSSEVHCYSSFMYISKSP, which amyloid nucleation score is on record?
**A.** 0.824 ± 0.16

**Q.** With VSTWVQTPGTHMLGVIVYFE as the substance, how does the amyloid nucleation score read?
**A.** inactive

**Q.** For VSYCAWSFEG, which amyloid nucleation score is on record?
**A.** inactive

**Q.** With VTAFATNKVC as the substance, how does the amyloid nucleation score read?
**A.** inactive

**Q.** For VTAFCWGLQRIVGIECSMLE, which amyloid nucleation score is on record?
**A.** inactive

**Q.** With VTFIRQGLEIVSVVLSICKE as the substance, how does the amyloid nucleation score read?
**A.** inactive

**Q.** Which amyloid nucleation score does the source give for VTFMIDFRASWALFHDRWWC here?
**A.** inactive

**Q.** Which amyloid nucleation score does the source give for VTFSCLYVFFYRQVIRCFGM here?
**A.** 0.059 ± 0.26

**Q.** For VTGIIRRIYLLF, which amyloid nucleation score is on record?
**A.** inactive

**Q.** With VTHLPTDIGMC as the substance, how does the amyloid nucleation score read?
**A.** 0.894 ± 0.12

**Q.** With VTLRCNGDMVYHYLPCGVLR as the substance, how does the amyloid nucleation score read?
**A.** inactive

**Q.** For VTMFLGQWCSHSIVAMCIEG, which amyloid nucleation score is on record?
**A.** inactive

**Q.** With VTMVSYYTCGEHNKVNILMQ as the substance, how does the amyloid nucleation score read?
**A.** 1.42 ± 0.097

**Q.** Which amyloid nucleation score does the source give for VTSESSSMGLTLSF here?
**A.** inactive

**Q.** With VTSPFTPSI as the substance, how does the amyloid nucleation score read?
**A.** -0.336 ± 0.63

**Q.** With VTVEALILNN as the substance, how does the amyloid nucleation score read?
**A.** inactive

**Q.** For VTVLQM, which amyloid nucleation score is on record?
**A.** inactive

**Q.** Which amyloid nucleation score does the source give for VTVSYIVNGMTSLFQVDVAS here?
**A.** inactive

**Q.** Which amyloid nucleation score does the source give for VTYNTSSGRVYGTGHNWFQG here?
**A.** inactive

**Q.** Which amyloid nucleation score does the source give for VVATTLEFMWRHMGTYFWGI here?
**A.** inactive

**Q.** Which amyloid nucleation score does the source give for VVCLYILHIPCSVRRHTLAD here?
**A.** inactive

**Q.** With VVDGSRCPPLSLSSDMWAR as the substance, how does the amyloid nucleation score read?
**A.** inactive

**Q.** With VVEGSILACVNRGGKKYYDC as the substance, how does the amyloid nucleation score read?
**A.** inactive

**Q.** Which amyloid nucleation score does the source give for VVFYTSGARDRICHMDVHRP here?
**A.** 0.113 ± 0.69

**Q.** Which amyloid nucleation score does the source give for VVGNVTGY here?
**A.** inactive

**Q.** For VVGSSIK, which amyloid nucleation score is on record?
**A.** inactive

**Q.** For VVICILQLHQYFFNYVH, which amyloid nucleation score is on record?
**A.** 2.11 ± 0.05

**Q.** With VVITYSFRVQHV as the substance, how does the amyloid nucleation score read?
**A.** inactive

**Q.** For VVKFFVWLDVFYVWGLAGII, which amyloid nucleation score is on record?
**A.** inactive

**Q.** For VVLIFWWKSQGMSMIVFVIY, which amyloid nucleation score is on record?
**A.** inactive

**Q.** With VVMMFVVIYIYALRRPY as the substance, how does the amyloid nucleation score read?
**A.** 0.143 ± 0.25

**Q.** For VVQRMG, which amyloid nucleation score is on record?
**A.** -0.048 ± 1.1

**Q.** With VVRCLLFVQLGCSKNLVAFQ as the substance, how does the amyloid nucleation score read?
**A.** 1.12 ± 0.12

**Q.** For VVRVHIRCTAFYKAPSYWGS, which amyloid nucleation score is on record?
**A.** 0.987 ± 0.11

**Q.** With VVSIYVGSYMSIICKS as the substance, how does the amyloid nucleation score read?
**A.** 1.95 ± 0.059

**Q.** For VVVSERVREMRDYNVLLRCT, which amyloid nucleation score is on record?
**A.** inactive

**Q.** For VVYDVTVKKSLDIRFPLRIP, which amyloid nucleation score is on record?
**A.** inactive

**Q.** With VVYTGTNGRLQDRA as the substance, how does the amyloid nucleation score read?
**A.** inactive

**Q.** Which amyloid nucleation score does the source give for VWCLFTSLSS here?
**A.** inactive

**Q.** With VWFGESAFRLVSELCIIKDV as the substance, how does the amyloid nucleation score read?
**A.** inactive

**Q.** For VWLHNFLVMKLSMRNFGWVR, which amyloid nucleation score is on record?
**A.** inactive

**Q.** For VWLSRRIVCFRLLVQLNSA, which amyloid nucleation score is on record?
**A.** inactive

**Q.** With VYCLSHNCMITSDNVRSIIF as the substance, how does the amyloid nucleation score read?
**A.** inactive

**Q.** With VYDWRGRVGD as the substance, how does the amyloid nucleation score read?
**A.** inactive

**Q.** Which amyloid nucleation score does the source give for VYFDDRTYRYRVAHIKFSFR here?
**A.** 2.94 ± 0.076

**Q.** For VYGVTSHCTVRRELWAGSIM, which amyloid nucleation score is on record?
**A.** inactive

**Q.** Which amyloid nucleation score does the source give for VYIFLNEEPRVN here?
**A.** inactive

**Q.** For VYMVTDRGR, which amyloid nucleation score is on record?
**A.** inactive

**Q.** With VYNGSFWRVNLVNF as the substance, how does the amyloid nucleation score read?
**A.** 1.09 ± 0.095

**Q.** Which amyloid nucleation score does the source give for VYQGMYNKSAYC here?
**A.** inactive

**Q.** With VYQTFYAIV as the substance, how does the amyloid nucleation score read?
**A.** inactive

**Q.** With VYRCVFWDVCAWCFKFR as the substance, how does the amyloid nucleation score read?
**A.** 0.778 ± 0.14

**Q.** For VYSLFKVELISILGRMKITK, which amyloid nucleation score is on record?
**A.** inactive

**Q.** For WADIIKMGDVHVVDYYRKER, which amyloid nucleation score is on record?
**A.** inactive

**Q.** For WAGLHRVRFES, which amyloid nucleation score is on record?
**A.** -0.26 ± 0.42

**Q.** Which amyloid nucleation score does the source give for WASYDGPEKRRNHTRYYISM here?
**A.** inactive

**Q.** For WAYMVNFFRTNLICEGWFDG, which amyloid nucleation score is on record?
**A.** -0.841 ± 2.5

**Q.** With WCDDFWLYVVLGYGLCFVLC as the substance, how does the amyloid nucleation score read?
**A.** inactive

**Q.** With WCFCFMCSFMTKFFHYLGS as the substance, how does the amyloid nucleation score read?
**A.** inactive

**Q.** With WCSPQFRLSFYLGISNDHWC as the substance, how does the amyloid nucleation score read?
**A.** 0.966 ± 0.09

**Q.** For WDFDVSVIGLMYKFRSVELG, which amyloid nucleation score is on record?
**A.** inactive

**Q.** For WDFFIGLLLYSIL, which amyloid nucleation score is on record?
**A.** inactive

**Q.** With WDLGASYLTGMFWVRIVGLE as the substance, how does the amyloid nucleation score read?
**A.** inactive

**Q.** For WDLRSCCDNVSTFEL, which amyloid nucleation score is on record?
**A.** inactive

**Q.** For WDYKAGISSSLSAIGCLYGD, which amyloid nucleation score is on record?
**A.** inactive

**Q.** For WEFLCFFAT, which amyloid nucleation score is on record?
**A.** inactive

**Q.** With WFERCLCLLTTRIKYLFSAD as the substance, how does the amyloid nucleation score read?
**A.** inactive

**Q.** With WFVRLLGSAFN as the substance, how does the amyloid nucleation score read?
**A.** inactive

**Q.** Which amyloid nucleation score does the source give for WFYGRLLPVPVLWIIRLKKG here?
**A.** 0.01 ± 0.59

**Q.** Which amyloid nucleation score does the source give for WGCALCSYDACRLES here?
**A.** 2.52 ± 0.068

**Q.** For WGFVWRVFLLKMC, which amyloid nucleation score is on record?
**A.** inactive

**Q.** For WGMTNSETGLVGWSLSKLLG, which amyloid nucleation score is on record?
**A.** inactive

**Q.** For WGWGCLCMWYICYSCVYRDR, which amyloid nucleation score is on record?
**A.** 0.708 ± 0.28

**Q.** Which amyloid nucleation score does the source give for WHDYTQRGVWAHGTALVWG here?
**A.** inactive

**Q.** With WHSWAFGTGCGSRTFEG as the substance, how does the amyloid nucleation score read?
**A.** 0.526 ± 0.17

**Q.** With WIFMSYWCVDLMPQLLHECW as the substance, how does the amyloid nucleation score read?
**A.** inactive

**Q.** With WILSNRWKFHLVGLVIAFV as the substance, how does the amyloid nucleation score read?
**A.** inactive

**Q.** Which amyloid nucleation score does the source give for WIPTPVLCGRPNFYFY here?
**A.** inactive

**Q.** With WIRIIQLNVSERGNRVGSYC as the substance, how does the amyloid nucleation score read?
**A.** 0.37 ± 0.5

**Q.** Which amyloid nucleation score does the source give for WISNTRCVLFVGN here?
**A.** inactive

**Q.** For WIVFMGDASCLSLLTWELFC, which amyloid nucleation score is on record?
**A.** 1.25 ± 0.095

**Q.** With WKALFSSTSCYTGVG as the substance, how does the amyloid nucleation score read?
**A.** inactive

**Q.** Which amyloid nucleation score does the source give for WKGMITFGI here?
**A.** inactive

**Q.** For WKNNRLNIIYQPLLGTQICK, which amyloid nucleation score is on record?
**A.** inactive

**Q.** With WLFLLRPRAGSTHPSTHLDF as the substance, how does the amyloid nucleation score read?
**A.** 0.823 ± 0.1

**Q.** For WLGRTATQFNIC, which amyloid nucleation score is on record?
**A.** inactive

**Q.** For WLHKH, which amyloid nucleation score is on record?
**A.** inactive

**Q.** For WLKWFLRTCNMVKIFASPFF, which amyloid nucleation score is on record?
**A.** inactive

Reference: the supplement of paper PMC12042874
